Data published in the nanobody polyreactivity screen of Harvey et al. (2022).

Test: yeast display, Sf9 membrane polyspecificity reagent, FACS + sequencing; frameworks hold sequencing errors
Summary of the method: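 Using colony PCR, genes from sorted yeast display clones were amplified, then sequenced on MiSeq at 2 × 250 and filtered by CDR length. The clones had been stained with 10% biotinylated, detergent-solubilized Sf9 membrane reagent for 1 hour at 4 °C and sorted by FACS into low and high (top ~1%) gates on anti-HA and streptavidin fluorescence. Polyreactivity labels come from the gate of origin.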

## QVHLVESAGCLVQAGGSLRLSCAASGSIIYLYAMGWYRQAPGKERELVAAISSGGSTNYADSVKGRFTISRDNAKNSVYLQMNSLKPEDTAVYYCAATLPGWYNEYDSWGQGTQVTVSS
  polyreactivity (PSR sort gate): low polyreactivity

## QVHLVESDGGLVQAGGSLRLSCAASGIIFGYYVMGWYRQAPGKERELVASITSGGSTNYADSVKGRYTISRDNAKNTVYLQMNSLIPEYTAVYYCATDEPVGRYKHNYYWGQGTKVTVSS
  polyreactivity (PSR sort gate): low polyreactivity

## QVHLVESGAGLVQAGGSLRLSCAASGSVFPVNAMGWYRQAPGKERELVAAISGSSGSTYYADSVKGRFTISRDNAKNTVYLQMNSLKPEDTAVYYCAKRGYGYGDGAYYYWGQGTQVTVSS
  polyreactivity (PSR sort gate): low polyreactivity

## QVHLVESGGALVQAGASLRLSCAASGFTYGLYSMGWYRQAPGKERELVAVISSSGGSTYYADSVKGRFTISRDNAKNTVYLQMNRLKPEDTAVYYCAAEWLDYKFDVSYDYWGQCTQVTVSS
  polyreactivity (PSR sort gate): low polyreactivity

## QVHLVESGGALVQAGGSLRLSCAASGLTFVTNSMGWYRQAPGKERELVAAISLGGGSTYYADSVKGRFTISLDNAKNTVYLQMNSLKPEDTAVYYCAAVPGWVRQAVGWVLSLLDYCGQGTQVTVSS
  polyreactivity (PSR sort gate): low polyreactivity

## QVHLVESGGALVQAGGSLRLSCAASGRTFGIYAMGWYRQAPGKERELVATISWRGGSTYYADSVKGRFPISRDNAKNTVYLQMNSLKPEDTAVYYCAAGYYPYWGQGTQVTVSS
  polyreactivity (PSR sort gate): low polyreactivity

## QVHLVESGGALVQAGGSLRLSCAASGSTFGGYAMGWYRPAPWKERELVAAITRSGGTTYYADSVKGRFTISRDNAKNTVYLQMNSLKPEDTAVYYCAAQGRRRPHQDAPYDYWGQGTQVTVSS
  polyreactivity (PSR sort gate): high polyreactivity

## QVHLVESGGCLVQAGCSLRLSCAASGRTFGWNVMGWYRQAPGTERELVAAISGSGGSTYYADSVKGRFTISRDNAKNTVYLQMNSLKPEDTAVYYCAALYGPGREYDYWGQGTQVTVSS
  polyreactivity (PSR sort gate): low polyreactivity

## QVHLVESGGCLVQAGGSLRLSCAASGFIFPWYAMGWYRQAPGKERELVAAISSSGGRTYYADSVKGRFTISRDNAKNTVYLQMNSLKPEDTGVYYCNVAYGLSQVYRYNYWGQGSQVTVSS
  polyreactivity (PSR sort gate): high polyreactivity

## QVHLVESGGCLVQAGGSLRLSSAASASIFYYNTMGWYIQAPGKERELVATNSSDGGTNYADSVKGRFTISRDNAKNTVYLQMNSLKPEDTAVYYCAAAVSPYSYWPGFDYWGQGTQVTVSS
  polyreactivity (PSR sort gate): low polyreactivity

## QVHLVESGGGEVQAGGSLRLSCAASGRTFYNYAMGWYRQAPGKERELVASIRKNGGSTYYAYSVKGRFSISRDNAKNTVYLQMNSLKPEDTAVYYFAARYWGISRIFPSKYDYWGQGTQVTVSS
  polyreactivity (PSR sort gate): high polyreactivity

## QVHLVESGGGFVQAGGSLRLSCAASGSIFVINGMGWYRQAPGKERELVAAISSRGGDTYYADSVKGRFTISRDNAKNTVYLQMNSLKPEDTAVYYCNARYYTSYDYWGQGTKVTVSS
  polyreactivity (PSR sort gate): low polyreactivity

## QVHLVESGGGIDQAGGSLRLSCAASGSTFTNNTMGWYRPAPGKERELVAGITKSGGSTYYADSVKGRFTISRDNAKKTVYLQMNSLKPEDTAVYYCATSTSRRYGSRHNYWGQGTQVTVSS
  polyreactivity (PSR sort gate): high polyreactivity

## QVHLVESGGGIVQAGGSLRLSCAASGRTFWNYAMRWYRQAPGKERELVAVIRFSDGSTYYADSVKGRFTISRDNAKNTVYVQMNSLKPEDTAVYYCAAKGQRRWGSGFDYWGQGTQVTVSS
  polyreactivity (PSR sort gate): low polyreactivity

## QVHLVESGGGIVQAGGSLRLSCAASGSIFNYYAMGWYRQAPGKETELVAAITWSGGRTYYADSVKGRFTISRDNAKNTVDLQMNSEKPEDTAVYYFATATVRFRVILFSPRMDDWGQGSQVTVSS
  polyreactivity (PSR sort gate): low polyreactivity

## QVHLVESGGGLDQAGGSLRLSCAASGSTFSGYAMGWYRQAPGKERELVAAISSTGRTYYADSVKGRFTISRDNAKNTVYLQMNSLIPEDTALYYCAAKRYTVYGHKYEYWGQGTQVTVSS
  polyreactivity (PSR sort gate): high polyreactivity

## QVHLVESGGGLDQAGGSLRLSSASSGRIIVRNAMGCYRQAPGKERELVADISSSGGRTYYADSVKGRFTISRDNAKNTVYLQMNSLKPEDTAVYYCAASSSNNEYDYWGQGTQETVSS
  polyreactivity (PSR sort gate): high polyreactivity
